Test results published in publication PMC5421877, “SOCS3 inhibits the pathological effects of IL-22 in non-melanoma skin tumor-derived keratinocytes” (Oncotarget, 2017).

How the values were obtained:
MEK phosphorylation = experiment: Western blot of MEK phosphorylation in healthy keratinocytes (IL-22); type: cell-based, human; settings: IL-22 time course, no peptide, n = 3
Procedure: Figure 5 KIR-ESS peptide inhibits IL-22-induced phosphorylation of STAT3 and Erk in healthy and SCC-derived keratinocytes (A) Protein extracts obtained from healthy keratinocytes (n = 3) pre-treated or not with 15 μM (left panel) or 75 μM (right panel), KIR, KIR-ESS and control (Ctrl1 or Ctrl2) peptides, and, then, […], were subjected to WB analysis to detect STAT3 (Tyr705), Erk and MEK phosphorylation. Filters were probed with anti-STAT3, -Erk and –MEK Abs (top). (B) Protein extracts obtained from healthy keratinocytes (n = 3) pre-treated or not with 75 μM KIR-ESS and control (Ctrl1) peptides, and, then, stimulated or not with IL-22 for 10 min, were subjected to immunoprecipitation for IL-22R1 and Jak1, and then analysed by WB to detect phosphorylated and unphosphorylated forms of the proteins. (C) Unphosphorylated and phosphorylated forms of STAT1 (Tyr701) and STAT3 (Tyr705) were monitored in keratinocytes treated with IFN-γ for 15 min by WB analysis (bottom). In all experimental groups, filters were stripped and re-probed with β-actin Ab. (D) Protein extracts were obtained from CAL27 (left panel) or CAL33 (right panel) lines treated or not with 75 μM peptides in presence of IL-22 or IFN-γ. WB was performed to detect basal and phosphorylated STAT1, STAT3 and Erk. D.I. ratio indicates the densitometric intensity of phosphorylated/unphosphorylated target protein. […]

[1] = test system: STAT3 phosphorylation in BCC and SCC lines; experiment: phospho-STAT3 levels in transformed keratinocyte lines (IL-22); type: cell-based; settings: BCC (n = 2) and SCC (n = 5) lines vs healthy strains (n = 5), IL-22 time course
Procedure: Figure 4 SOCS3 and SOCS1 are poorly expressed in the epidermis of NMSC lesions and are not induced in transformed keratinocytes by IL-22 (A) Immunohistochemistry for SOCS3 and SOCS1 (red staining) was performed respectively on frozen or paraffin-embedded sections from biopsies of healthy skin (i), NLS (ii, iii) and LS (iv, v) areas of BCC and SCC, specimens. Psoriatic skin biopsies were also analyzed (vi). Sections were counterstained with Mayer's H&E and were visually evaluated by an pathologist experienced in dermatology. One out of four representative staining is shown. Scale bars, […]. (B) Graphs show SOCS3 and SOCS1 mRNA levels which were detected by real-time PCR analysis in cultured SCC (CAL27 and CAL33) and BCC (M77015) skin tumor lines left untreated or stimulated with IL-22 or IFN-γ for 3 h and normalized for β-actin mRNA expression levels. All data were obtained from three independent experiments. […] SOCS1 was detected by IP using a specific anti-SOCS1 Ab, whereas SOCS3 by WB with an anti-SOCS3 Ab. […] Densitometric intensity (D.I.) of SOCS1 or SOCS3/β-actin was calculated from three independent experiments and numerically expressed as D. I. Ratio. *p < 0.01; **p < 0.05. […] SOCS3 and phospho-Tyr STAT3 levels were detected by WB and normalized to β-actin levels. […]

B1: IL-22: cytokine stimulus, R&D Systems (protein, UniProt Q9GZX6 34-179, looked up)
Interleukin-22: APISSHCRLDKSNFQQPYITNRTFMLAKEASLADNNTDVRLIGEKLFHGVSMSERCYLMKQVLNFTLEEVLFPQSDRFQPYMQEVVPFLARLSNRLSTCHIEGDDLHIQRNVQKLKDTVKKLGESGEIKAIGELDLLFMSLRNACI
**Q.** B1 was tested. Which MEK1/2 activation (MEK phosphorylation) did it give?
**A.** culminated with STAT3, MEK1/2 and Erk1/2 activation

**Q.** What about the phospho-STAT3 levels [1] of the same molecule?
**A.** higher compared to healthy cells, and showed a long-lasting activation
